From paper PMC6363164

Target: Rab7-RILP complex (human) (UniProt P51149)
Experiment: ITC; 20 °C; 20 mM Tris-HCl pH 7.5, 150 mM NaCl; 1 mM ORP1 ANK in the syringe, 0.1 mM Rab7 or Rab7-RILP in the cell; Rab7 Q67L with 0.5 mM GTP, Rab7 T22N with 0.5 mM GDP; independent binding model

B1: human ORP1 ANK domain (residue 5-152) (domain or fragment)
chain: AEQQLLHHARNGNAEEVRQLLETMARNEVIADINCKGRSKSNLGWTPLHLACYFGHRQVVQDLLKAGAEVNVLNDMGDTPLHRAAFTGRKELVMLLLEYNADTTIVNGSGQTAKEVTHAEEIRSMLEAVERTQQRKLEELLLAAAREG
- Kd: 5 µM
